Max and TOP data for five molecules are collected here from US20250257130A1 (NONA BIOSCIENCES SUZHOU, published 2025).

Test [1] deals with T1, human ROR1 on cells (HEK293T-hROR1, PANC-1, A549) (human, UniProt Q01973 30-937).
T1 construct: whole, on cells; one molecule for the three cell lines; also called huROR1; cell surface ROR1
Kind of test: flow cytometry, PANC-1 cells. How it is done: (§1) In brief, anti-ROR1 antibodies were serially diluted in staining buffer (PBS containing 2% FBS). Antibody solution was incubated with 1×10⁵ cells at 4° C. for 1 hour. […] After 1-hour incubation at 4° C., cells were washed twice with staining buffer and subjected to flow cytometry. PR000374 (Bench marker 1) and non-relevant IgG isotype control (Crownbio) were used as positive and negative controls, respectively.
For orientation: In flow cytometry, cells or beads pass a laser one at a time.

The target in test [2] is T2, cynomolgus ROR1 on CHO-K1-cynoROR1 cells (cynomolgus monkey, UniProt A0A2K5WTX7 30-937).
T2 construct: whole, on cells
Put plainly: flow cytometry, CHO-K1-cynoROR1 cells. How it is done: Binding of recombinant anti-ROR1 antibodies to human or cynomolgus ROR1-overexpressing cells was tested by flow cytometry. In this example, ROR1-expressing cell lines are HEK293T cell lines that had been transfected to express human ROR1 on the surface (HEK293T-hu ROR1, KYINNO BIOTECHNOLOGY CO., LTD, Catalog #KC-1018), CHO-K1 cell lines that had been transfected to express cynomolgus ROR1 (CHOK1-cyno ROR1), PANC-1 (ATCC, catalog: CRL-1469) or A549 cell lines (Shanghai Institute of Biochemistry and Cell Biology, Chinese Academy of Sciences).
as §1

In test [3] the target is T1, human ROR1 on cells (HEK293T-hROR1, …). Put plainly: flow cytometry, PANC-1 cells. As to the method: as §1
Binding activity of the variants to PANC-1 cells were tested using the same method described in example 5.1. The results were shown in FIGS. 7-8 and Table 11 and Table 12.
The source holds these as a separate data set.

T1 sequence (Q01973 30-937): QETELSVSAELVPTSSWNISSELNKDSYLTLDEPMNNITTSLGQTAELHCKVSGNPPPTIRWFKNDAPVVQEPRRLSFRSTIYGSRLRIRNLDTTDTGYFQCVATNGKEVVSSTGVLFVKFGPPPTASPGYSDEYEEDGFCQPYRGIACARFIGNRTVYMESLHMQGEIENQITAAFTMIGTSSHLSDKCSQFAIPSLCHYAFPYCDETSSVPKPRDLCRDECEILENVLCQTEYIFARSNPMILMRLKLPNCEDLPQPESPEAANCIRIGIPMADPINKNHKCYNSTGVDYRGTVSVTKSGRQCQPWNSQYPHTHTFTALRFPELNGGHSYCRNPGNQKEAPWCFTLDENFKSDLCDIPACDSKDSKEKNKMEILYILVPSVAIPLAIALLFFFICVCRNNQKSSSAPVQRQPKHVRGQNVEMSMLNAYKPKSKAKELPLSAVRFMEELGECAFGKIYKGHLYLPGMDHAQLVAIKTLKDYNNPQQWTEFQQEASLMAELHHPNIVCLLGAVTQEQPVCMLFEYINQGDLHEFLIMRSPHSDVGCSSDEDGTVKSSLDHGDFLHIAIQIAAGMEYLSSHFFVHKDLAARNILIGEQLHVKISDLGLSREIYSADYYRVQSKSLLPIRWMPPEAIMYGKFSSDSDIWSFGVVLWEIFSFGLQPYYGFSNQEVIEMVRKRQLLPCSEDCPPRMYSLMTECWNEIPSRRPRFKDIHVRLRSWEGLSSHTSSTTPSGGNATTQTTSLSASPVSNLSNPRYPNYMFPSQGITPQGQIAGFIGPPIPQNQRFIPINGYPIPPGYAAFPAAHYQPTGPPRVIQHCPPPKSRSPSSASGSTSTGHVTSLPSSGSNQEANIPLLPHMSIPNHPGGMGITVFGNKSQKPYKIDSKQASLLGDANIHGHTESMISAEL

B1: PR005345 (antibody, human IgG1, V domains shown)
VH: EVQLVESGGGLVKPGGSLRLSCAASGFTFSDYYMSWIRQAPGKGLEWIAYISSSGSTIHYSDSVKGRFTISRDNAKNSLYLQMNSLRAEDTAVYYCARDTPSSSSDWVSLQFDYWGQGTPVTVSS
notes: HCAb (heavy chain-only, human IgG1 Fc), no light chain
Regarding B1, the Max in test [1] amounted to 9710; in test [2], 24600.

B2: PR007421 (antibody, V domains shown)
VH: EVQLVESGGGLVKPGGSLRLSCAASGFTFSDFYMSWIRQAPGKGLEWISYIDSSGRPLAYADSVKGRFTISRDNAKNSLYLQMNSLRAEDTAIYYCARDMPSSSSDWVSLQFDYWGQGTLVTVSS
notes: bivalent form (HCAb) variant of PR005340, no light chain
Molecule B2 had a TOP in test [3] of 86600.

B3: PR005348 (antibody, human IgG1, V domains shown)
VH: EVQLVESGGGLVKPGGSLRLSCAASGFTFSDYYMSWIRQTPGKGLEWVSYISRSGSTKYYADSVKGRFTISRDNAKNSLYLQMNSLRAEDTAVYYCARDAPSSNSDWVSLHFDHWGQGTLVTVSS
notes: as for B1
Regarding B3, the Max in test [1] turned out to be 10200; in test [2] it was 28000.

B4: PR005350 (antibody, human IgG1, V domains shown)
VH: EVQLVESGGGLVKPGGSLRLSCAASGFTLSDSQMSWIRQAPGKGVEWVSYISSSGNTIYYGDSVKGRFTISRDNAKNSLFLQMNSLRAEDTAVYYCARVPPSSSNWYEDFDIWGQGTLVTVSS
notes: as for B1
B4: the Max in test [1] worked out at 4250; in test [2], 14400.

B5: PR005346 (antibody, human IgG1, V domains shown)
VH: EVQLVESGGGLVKPGGSLRLSCAASGFTLSDYYMSWIRQAPGKGLEWVSNISKNGFTIYYAESVKGRFTVSRDNAKNSLYLQMNSLRAEDTAIYYCARDSSGWYSEFDYWGQGTLVTVSS
notes: as for B1
As to B5, the values for the Max in test [1] and in test [2] were 10200 and 26600, respectively.
